Source: patent US5686583, “Specific antibodies against activated platelets, the preparation thereof and the use thereof in diagnosis and therapy” (Behringwerke Aktiengesellschaft, dated 1997)

How the values were obtained:
[1] = molecular target: human thrombospondin (TSP) (human, UniProt P07996); test: Western blot
[2] = molecular target: v. Willebrand factor (Homo sapiens (Human), UniProt P04275); test: Western blot
[3] = molecular target: gP 140 (Homo sapiens (Human), UniProt P16109); test: Western blot
[4] = molecular target: fibronectin (Homo sapiens (Human), UniProt P02751-8); test: immunoprecipitation and Western blotting
[5] = molecular target: fibrinogen (Homo sapiens (Human), UniProt P02671-2); test: immunoprecipitation and Western blotting
[6] = molecular target: platelet antigen recognized by MAb BW 2128 (human); test: reaction with platelets; method not further stated

binding result [1]: no binding
binding result [2]: no binding
binding result [3]: no binding
binding result [4]: no binding
binding result [5]: no binding
fold stronger reaction with thrombin-activated than with non-activated platelets [6]: > 10 ×
B1: MAb BW 2128 (antibody, V domains shown)
VH: LQQSGAELVKPGASVTLSCKASGYTFTSYWMHWVKQRPGQGLEWIGEINPSNGRTNYNEKFKSKATLTVDKSSSTAYMHLSSLTSDDSAVYYCARGAGAGGYWGQGTTVTVSS
VL: QLTQSPAIMSASPGEKVTMTCSASSSVTYMHWCQQKSGTSPKRWIYDTSKLASGVPARFSGSGSGTSYSLTISSMEAEDAATYYCQQWNSNPLTFGAGTKLEI
